± gives the standard deviation.

The text below walks through data of the supplement of paper PMC10567573.

This series is described as follows: protein stability index of a GFP-peptide fusion (GPS, HEK-293T) (PSI 1-6); higher = more stable.
Where [1] appears, read: treatment: DMSO, c terminus: a fixed tail appended.
[2] abbreviates: treatment: MLN4924 1 uM, 8 h, c terminus: a fixed tail appended.
Setting [3] is: treatment: DMSO, c terminus: native.
[4] abbreviates: treatment: MLN4924 1 uM, 8 h, c terminus: native.
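Also: 24-mer peptide tiles fused after GFP, lentivirally expressed, FACS-sorted into six equal bins by GFP/DsRed ratio, decoded by Illumina sequencing, PSI is the read-weighted mean bin number.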

As for KAMAKLSKLASNGTPMGTFAPLWE [FCHO1], the protein stability index runs as follows: under setting [1], 2.23 ± 0.41; under setting [2], 2.48 ± 0.12.

KMREFTKTIKRPFGVKYNPYTRSI [TPH1]: the protein stability index under setting [1] was 2.25 ± 0.21 and the protein stability index under setting [2] was determined as 2.31 ± 0.17.

As for LARPECLFLLLGHGASPGLRDGGG [ANKRD9], the protein stability index is, setting by setting: under setting [1], 2.29 ± 0.54; under setting [2], 2.19 ± 0.23.

As to ATFEKILESELLRGTQYSSLDSLD [PSD2], the protein stability index is, setting by setting: under setting [1], 2.25 ± 0.23; under setting [2], 2.41 ± 0.14.

Consider GNLNIHQRTHTGEKPYGCIDCGKA [ZNF649], for which the protein stability index is 3.96 ± 0.38 under setting [1] and 4.14 ± 0.4 under setting [2].

On to QPLSPASSSYSVSSPRSVDSYSST [ATF6], for which the protein stability index reads like this: under setting [1], 4.38 ± 0.22; under setting [2], 4.59 ± 0.28.

For LVTLNDMKAKQEALVKEREKQLAK [FAM50A], the protein stability index is, setting by setting: under setting [1], 4.23 ± 0.24; under setting [2], 4.25 ± 0.45.

Take HLALHAASSGDLTCGVCALELGST [PLAGL1]: the protein stability index under setting [1] was determined as 3.01 ± 0.48 and the protein stability index under setting [2] was 2.93 ± 0.24.

For NLSRDVTEALILQLFSQIGPCKNC [TIA1], the protein stability index by setting is: under setting [1], 2.48 ± 0.42; under setting [2], 2.91 ± 0.6.

For NGNGKNGGLEHVPSSSSIHNGDME [BNIP3L], the protein stability index reads like this: under setting [1], 5.28 ± 0.2; under setting [2], 5.28 ± 0.24.

With KAGRRMFPACRVSVTGLDPEARYL [TBX6], the protein stability index was 2.36 ± 0.56 under setting [1] and 1.86 ± 0.2 under setting [2].

In the case of VVETINAAIGVTTSPVLPSLIQLL [HACD3], the protein stability index stood at 2.89 ± 0.74 under setting [1] and 2.81 ± 0.4 under setting [2].

For VTSNGSIGRDPPAETQPQNPPAQP [CLPTM1], the protein stability index worked out at 5.41 ± 0.27 under setting [1] and 5.41 ± 0.15 under setting [2].

For the sequence IGHFNTASGVGFILGPVVGGYLTE [MFSD9], the protein stability index reads like this: under setting [1], 2.38 ± 0.53; under setting [2], 2.31 ± 0.39.

Consider PHQPVTAITRVSDRFSGETSAAAL [SMTNL2], for which the protein stability index is 4.32 ± 0.39 under setting [1] and 4.32 ± 0.17 under setting [2].

As to SPALSQGHVTGSKTTKDATGPDT [PSD2], the protein stability index runs as follows: under setting [3], 5.33 ± 0.28; under setting [4], 5.43 ± 0.23.

For the sequence LPGNTTEATPRSLRASGSLCGPHA, the protein stability index is 4.46 ± 0.38 under setting [1] and 4.28 ± 0.3 under setting [2].

For the sequence DSQAPAGSLDLVPGGLTLEEHSLE [SPDEF], the protein stability index runs as follows: under setting [1], 5.36 ± 0.21; under setting [2], 5.45 ± 0.33.

For SPMLIVFHGKYSTINPLWHIRHLG [GLT8D2], the protein stability index is 2.82 ± 0.44 under setting [1] and 2.47 ± 0.71 under setting [2].

With FVHELHLSRLQRVKFCLLGALLAP [LPCAT4], the protein stability index is, setting by setting: under setting [1], 2.41 ± 0.71; under setting [2], 2.06 ± 0.34.

As for FSRENLSKDLYLISQMDSDQFIPI [LARP4], the protein stability index came to 2.17 ± 0.45 under setting [1] and 2.13 ± 0.36 under setting [2].

Consider GALETRSLKDHKVSFLRSGTKLIF [C2CD2L], for which the protein stability index was found to be 2.13 ± 0.24 under setting [1] and 2.1 ± 0.42 under setting [2].

Turning to TQNHAASALPTGSPKRGTAPGDLS [FBF1], the protein stability index is, setting by setting: under setting [1], 5.08 ± 0.18; under setting [2], 5.13 ± 0.21.

ETLEASVGPRETEEKVRDLLWAKF [TOR1AIP2] yielded a protein stability index under setting [1] of 3.98 ± 0.22 and a protein stability index under setting [2] of 3.92 ± 0.3.

Sequence SERDKRPEGYNLKDEEGRLRDPAT [PPP2R2B] yielded a protein stability index under setting [1] of 5.6 ± 0.29 and a protein stability index under setting [2] of 5.4 ± 0.18.

SLIGKGSFGQVVKAYDHQTQELVA [DYRK1B] came in with a protein stability index under setting [1] of 3.56 ± 0.26 and a protein stability index under setting [2] of 3.59 ± 0.43.

The sequence YEEEFDYETESETESEIESETDFE [GNAS] gave a protein stability index under setting [1] of 5.12 ± 0.24 and a protein stability index under setting [2] of 5.11 ± 0.16.

Take EECRMSGEFPSPVSISIISSTSGG [KRT71]: the protein stability index under setting [1] was 3.59 ± 0.25 and the protein stability index under setting [2] was determined as 3.6 ± 0.4.

Take DGSLILVSASRDKTLRVWDLKDDG [WSB1]: the protein stability index is 2.74 ± 0.31 under setting [1] and 3.03 ± 0.21 under setting [2].

As for DAEGLAARDVQKIIGDYFSDQDPR [INTS4], the protein stability index under setting [1] was found to be 4.95 ± 0.15 and the protein stability index under setting [2] is 4.86 ± 0.32.

Turning to KHSTIFDVGENLTVPDEFTVEERQ [SLC25A25], the protein stability index was found to be 5.07 ± 0.22 under setting [1] and 4.98 ± 0.22 under setting [2].

In turn, NSEEEEDDDDEEEEVSEVESFILD [ANKRD17] came in with a protein stability index under setting [1] of 5.06 ± 0.33 and a protein stability index under setting [2] of 4.94 ± 0.23.

On to GEALGRDHSEHLSGSSYRDALQRY [RBMY1A1], for which the protein stability index under setting [1] worked out at 4.33 ± 0.22 and the protein stability index under setting [2] worked out at 4.26 ± 0.29.

As for LLGPATGCLLDDGLEGLFEDIDTS [SERTAD1], the protein stability index is, setting by setting: under setting [1], 4.27 ± 0.097; under setting [2], 4.32 ± 0.37.

QKKQKLEQKAAGSASAKRVWNMTA [FATE1]: the protein stability index worked out at 4.01 ± 0.15 under setting [1] and 3.93 ± 0.37 under setting [2].

Regarding DLNRHLDEMCANNDFVQVDPGQVG [FAN1], the protein stability index reads like this: under setting [1], 4.29 ± 0.4; under setting [2], 4.63 ± 0.058.

Turning to LLLILCMQHSFPEPGRLYLDLILA [TMEM192], the protein stability index turned out to be 3.3 ± 0.48 under setting [1] and 3.11 ± 0.32 under setting [2].

Take ERLFGSAANVVSAKRNRLAPAHVD [ZBED1]: the protein stability index reads like this: under setting [1], 3.65 ± 0.41; under setting [2], 3.66 ± 0.34.

The sequence FLEALSSRYLGDSGLDDFFLDIDT [SERTAD3] yielded a protein stability index under setting [1] of 2.4 ± 0.4 and a protein stability index under setting [2] of 2.41 ± 0.39.

TESSNTTIEDEDVKARKQEIIKVT [CAMK2D]: the protein stability index under setting [1] is 5.21 ± 0.29 and the protein stability index under setting [2] was found to be 5.07 ± 0.25.

Take MGSAADVRFSLGTTTHAPPGVHRR [PPFIA4]: the protein stability index was 4.26 ± 0.3 under setting [1] and 4.51 ± 0.39 under setting [2].

On to EDTPSDNDSGICMSPESYLGSPQH [ATF4], for which the protein stability index under setting [1] turned out to be 4.66 ± 0.36 and the protein stability index under setting [2] worked out at 4.83 ± 0.22.

Turning to CSHNLCQACARNILVQTPESESPQ [TRIM9], the protein stability index stood at 3.57 ± 0.33 under setting [1] and 3.85 ± 0.33 under setting [2].

With KIIQLGLTFMNEQGEYPPGTSTWQ [CNOT7], the protein stability index was 2.23 ± 0.2 under setting [1] and 2.19 ± 0.18 under setting [2].

In the case of APRGKNGFTPLHMAVDKDTTNVGR [FEM1A], the protein stability index was 4.37 ± 0.19 under setting [1] and 4.44 ± 0.18 under setting [2].

As for VLLIKDRTSKSRGFAFITFENPAD [RBMY1A1], the protein stability index under setting [1] was 2.83 ± 0.88 and the protein stability index under setting [2] stood at 3.06 ± 1.5.

FEQTPALTKHEWTEALGCDPPLSQ [ZNF8]: the protein stability index worked out at 4.56 ± 0.26 under setting [1] and 4.6 ± 0.13 under setting [2].

Consider LEAEVKDTTRVENLIKSENYGKIL [R3HDM1], for which the protein stability index reads like this: under setting [1], 4.3 ± 0.59; under setting [2], 4.43 ± 0.42.

Turning to SLEKLLASEPLPWDLRFRIIHETA [RIPK4], the protein stability index worked out at 2.18 ± 0.33 under setting [1] and 2.31 ± 0.33 under setting [2].

On to EIIELRRTVNALEIELQAQHNLRD [KRT34], for which the protein stability index is, setting by setting: under setting [1], 2.89 ± 0.36; under setting [2], 3.03 ± 0.22.

On to ARPTEVLAGTQLLYAFFTRTHGDM [TRIB3], for which the protein stability index was found to be 2.43 ± 0.45 under setting [1] and 2.33 ± 0.38 under setting [2].

As to ARRKSELPQDPHTKKALEAHCRAD [PPP2R5C], the protein stability index is, setting by setting: under setting [1], 4.68 ± 0.34; under setting [2], 5.17 ± 0.12.

For DEMYEVRIAAVEALCMLAQSSPSF [INTS4], the protein stability index reads like this: under setting [1], 2.69 ± 0.81; under setting [2], 2.31 ± 0.11.

For the sequence PDANTWTALPPMNEARHNFGIVEI [GAN], the protein stability index is 2.42 ± 0.34 under setting [1] and 2.51 ± 0.43 under setting [2].

QQDFLGLPEELRRLSGLSSVGHNW [C22orf15]: the protein stability index reads like this: under setting [1], 2.96 ± 0.21; under setting [2], 3.11 ± 0.14.

EDTQTDADSSAQAAAQAPENFQEG [TAF7L] came in with a protein stability index under setting [1] of 5.47 ± 0.52 and a protein stability index under setting [2] of 5.57 ± 0.42.

Consider FQMEKIEHGYENMNHFTVNLNREE [TRIM55], for which the protein stability index runs as follows: under setting [1], 3.21 ± 0.47; under setting [2], 3.57 ± 0.59.

Turning to VMSIPDVIRLKQEQHVHNEKSVLK [PRKX], the protein stability index is 4.18 ± 0.15 under setting [1] and 4.25 ± 0.12 under setting [2].

As to FSFLGLLALGVSLLCNAITGITLL [PTGFR], the protein stability index reads like this: under setting [1], 2.77 ± 0.31; under setting [2], 3.09 ± 0.98.

For the sequence GPEPPPVYTNLSSYSPASASSGGA [JUNB], the protein stability index was found to be 4.6 ± 0.5 under setting [1] and 4.76 ± 0.3 under setting [2].

Turning to EALKHPWVCQRSTVASMMHRQETV [CAMK2B], the protein stability index reads like this: under setting [1], 2.88 ± 0.27; under setting [2], 2.97 ± 0.21.

With VQELLPAACLLQLKGVKQACCEFL [KLHL12], the protein stability index is, setting by setting: under setting [1], 2.27 ± 0.28; under setting [2], 1.81 ± 0.37.

Take KPHRCHNCGKSFSRLTALTLHQRT [ZNF449]: the protein stability index is, setting by setting: under setting [1], 2.46 ± 0.096; under setting [2], 2.78 ± 0.76.

Consider RTKSRTWAGEKSKREMYSRLKKL [CDC25A], for which the protein stability index turned out to be 4.36 ± 0.32 under setting [3] and 4.51 ± 0.38 under setting [4].

As for RDDLEALGHMFMYFLRGSLPWQGL [CSNK1G3], the protein stability index reads like this: under setting [1], 3.19 ± 0.37; under setting [2], 2.93 ± 0.15.

In the case of YFSQVPVLASFILDDGEIDEIRWK [IQUB], the protein stability index reads like this: under setting [1], 2.25 ± 0.72; under setting [2], 2.22 ± 0.28.

In turn, LPSLRTVSSSVIEQLFFVRLVGKT [NR2F2] gave a protein stability index under setting [1] of 2.44 ± 0.37 and a protein stability index under setting [2] of 2.28 ± 0.071.

Take GCLGHGSLTDISQPTIVEALLGYE [NEK8]: the protein stability index under setting [1] came out at 3.1 ± 0.11 and the protein stability index under setting [2] is 3.18 ± 0.4.

In turn, VDPIGHLYIFATCLGLSYDGLLGD [MAGEA3] returned a protein stability index under setting [1] of 3.06 ± 0.37 and a protein stability index under setting [2] of 3.21 ± 0.34.

LLNPEKYKAKSRSPGSPVGEGTGS [ADD1]: the protein stability index came out at 4.52 ± 0.26 under setting [1] and 4.55 ± 0.21 under setting [2].

Regarding SVPFSFDPNTAAGWLSVSDDLTSV [TRIM35], the protein stability index is, setting by setting: under setting [1], 3.42 ± 0.25; under setting [2], 3.52 ± 0.23.

Take LGGAIDFGAAYVLEQASSHIGNST [ATL3]: the protein stability index stood at 3.03 ± 0.23 under setting [1] and 3.2 ± 0.15 under setting [2].
